The RNAGym collection of RNA variant scans (doi:10.1073/pnas.2313332121)

B1: TPR t1 (parent)
chain: GACCAAUCUGCCCUCAGAGCUCGAGAACAUCUUCGGAUGCAGAGGAGGCAGGCUUCGGUGGCGCGAUAGCGCCAACGUCCUCAACCUCCAAUGCAUCCCACCACAUGAUGAUGCCUGAAGAGCCUUGGUUUUUUG

Variants of: B1
Assay: polymerase ribozyme fitness, log enrichment relative to wild type (log ratio); higher = more active; in vitro selection for triplet polymerase activity
Outline: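 To select mutant libraries of each subunit of a heterodimeric triplet polymerase ribozyme, built by PCR and transcribed, each was annealed with a biotinylated primer, partner subunit and triplets, then incubated frozen at −7 °C. Extended constructs were gel-excised, captured on streptavidin beads and amplified by RT-PCR, in one round carried out in triplicate. Illumina sequencing of input and output libraries kept genotypes with ≥10 input reads and ≥1 read per output. Fitness is the base-2 logarithm of genotype enrichment relative to wild-type enrichment, from inverse-variance-weighted replicate averages.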

**Q.** For A46U C101U, which “polymerase ribozyme fitness (log ratio)” value is on record?
**A.** -0.308

**Q.** Which “polymerase ribozyme fitness (log ratio)” value does the source give for A46U C101G here?
**A.** -3.57

**Q.** For A46U G128U, which “polymerase ribozyme fitness (log ratio)” value is on record?
**A.** -3.23

**Q.** With G48A C56U C82U as the variant, how does the “polymerase ribozyme fitness (log ratio)” value read?
**A.** -0.312

**Q.** With G47U A50G as the variant, how does the “polymerase ribozyme fitness (log ratio)” value read?
**A.** -1.99

**Q.** For G47A C53U U54C, which “polymerase ribozyme fitness (log ratio)” value is on record?
**A.** -1.11

**Q.** For G45U U130G, which “polymerase ribozyme fitness (log ratio)” value is on record?
**A.** -2.66

**Q.** Which “polymerase ribozyme fitness (log ratio)” value does the source give for G47U C49U C62U G117U here?
**A.** -5.19

**Q.** Which “polymerase ribozyme fitness (log ratio)” value does the source give for G48C A75G here?
**A.** -0.575

**Q.** Which “polymerase ribozyme fitness (log ratio)” value does the source give for G47U G61A C85A here?
**A.** -1.18

**Q.** With A46G C70A as the variant, how does the “polymerase ribozyme fitness (log ratio)” value read?
**A.** -1.26

**Q.** With A46G C70G as the variant, how does the “polymerase ribozyme fitness (log ratio)” value read?
**A.** -4.8

**Q.** With G47A G51C C98A C102U C115U G127U as the variant, how does the “polymerase ribozyme fitness (log ratio)” value read?
**A.** -7.84

**Q.** Which “polymerase ribozyme fitness (log ratio)” value does the source give for A46U G60C U96C C123G here?
**A.** 0.53

**Q.** Which “polymerase ribozyme fitness (log ratio)” value does the source give for A46G C64U G110U C123G here?
**A.** -1.18

**Q.** For G47U A66U U125G, which “polymerase ribozyme fitness (log ratio)” value is on record?
**A.** -3.75

**Q.** With G48A C56U C86A C94A A111C as the variant, how does the “polymerase ribozyme fitness (log ratio)” value read?
**A.** -2.79

**Q.** For G48C C49G A84U C124U, which “polymerase ribozyme fitness (log ratio)” value is on record?
**A.** -1.8

**Q.** Which “polymerase ribozyme fitness (log ratio)” value does the source give for G47U C53A U106C here?
**A.** -0.879

**Q.** With A46C G120A as the variant, how does the “polymerase ribozyme fitness (log ratio)” value read?
**A.** -0.00915

**Q.** With A46C C56G as the variant, how does the “polymerase ribozyme fitness (log ratio)” value read?
**A.** -1.37

**Q.** For A46U U96C C115U, which “polymerase ribozyme fitness (log ratio)” value is on record?
**A.** -2.77

**Q.** For G47U A50U U59C C73A U78A, which “polymerase ribozyme fitness (log ratio)” value is on record?
**A.** -2.43

**Q.** For A46U G127U, which “polymerase ribozyme fitness (log ratio)” value is on record?
**A.** -2.62

**Q.** Which “polymerase ribozyme fitness (log ratio)” value does the source give for A46U G127C here?
**A.** -2.68

**Q.** Which “polymerase ribozyme fitness (log ratio)” value does the source give for G47C C49A C70A U106G here?
**A.** -5.44

**Q.** Which “polymerase ribozyme fitness (log ratio)” value does the source give for G45U G60C U125G U133A here?
**A.** -1.59

**Q.** With G47A G48C G52U C79U as the variant, how does the “polymerase ribozyme fitness (log ratio)” value read?
**A.** -3.46

**Q.** With A46U C49U G58C G60A A95C U112G U132A as the variant, how does the “polymerase ribozyme fitness (log ratio)” value read?
**A.** -3.98

**Q.** With G45U U78C as the variant, how does the “polymerase ribozyme fitness (log ratio)” value read?
**A.** -1.46

**Q.** For G48A G69C, which “polymerase ribozyme fitness (log ratio)” value is on record?
**A.** -1.33

**Q.** With G48A G69U as the variant, how does the “polymerase ribozyme fitness (log ratio)” value read?
**A.** 1.02

**Q.** With G47U C53A C70U U126C as the variant, how does the “polymerase ribozyme fitness (log ratio)” value read?
**A.** -2.43

**Q.** Which “polymerase ribozyme fitness (log ratio)” value does the source give for A46U C72U U96A G120A here?
**A.** -1.15

**Q.** With G45U U59G A83G C115U as the variant, how does the “polymerase ribozyme fitness (log ratio)” value read?
**A.** -5.27

**Q.** Which “polymerase ribozyme fitness (log ratio)” value does the source give for A46U C64U A66U here?
**A.** -2.06

**Q.** Which “polymerase ribozyme fitness (log ratio)” value does the source give for G48A A50G G69U C76A U78C here?
**A.** -2.05

**Q.** For G47U C62G, which “polymerase ribozyme fitness (log ratio)” value is on record?
**A.** -3.76

**Q.** With G48A C85G as the variant, how does the “polymerase ribozyme fitness (log ratio)” value read?
**A.** -2.75

**Q.** For G48A C82A, which “polymerase ribozyme fitness (log ratio)” value is on record?
**A.** -1.42

**Q.** For G48A C82G, which “polymerase ribozyme fitness (log ratio)” value is on record?
**A.** -0.457

**Q.** For A46C G71C, which “polymerase ribozyme fitness (log ratio)” value is on record?
**A.** -1.14

**Q.** For A46C C53A C72A C86A C124G, which “polymerase ribozyme fitness (log ratio)” value is on record?
**A.** 0.771

**Q.** With G48C C49U U59A as the variant, how does the “polymerase ribozyme fitness (log ratio)” value read?
**A.** -1.34

**Q.** Which “polymerase ribozyme fitness (log ratio)” value does the source give for G47A G52A G61C G120A here?
**A.** -4.97

**Q.** Which “polymerase ribozyme fitness (log ratio)” value does the source give for G48C C49G U54C A95C G117A here?
**A.** -2.24

**Q.** Which “polymerase ribozyme fitness (log ratio)” value does the source give for A46U G120U G135C here?
**A.** -0.818

**Q.** For G45U G52U, which “polymerase ribozyme fitness (log ratio)” value is on record?
**A.** -2.65

**Q.** With G48A A50U U78A A119G G120C as the variant, how does the “polymerase ribozyme fitness (log ratio)” value read?
**A.** 0.486

**Q.** For G47U A105C U106A, which “polymerase ribozyme fitness (log ratio)” value is on record?
**A.** -1.48

**Q.** With G48A C104U as the variant, how does the “polymerase ribozyme fitness (log ratio)” value read?
**A.** -1.25

**Q.** Which “polymerase ribozyme fitness (log ratio)” value does the source give for G48A G61U U78C here?
**A.** -0.213

**Q.** For G47U A90G, which “polymerase ribozyme fitness (log ratio)” value is on record?
**A.** -0.297

**Q.** Which “polymerase ribozyme fitness (log ratio)” value does the source give for A46U G60C here?
**A.** -0.894

**Q.** With G47A G110A as the variant, how does the “polymerase ribozyme fitness (log ratio)” value read?
**A.** -1.67

**Q.** For A46U U106A, which “polymerase ribozyme fitness (log ratio)” value is on record?
**A.** -1.09

**Q.** Which “polymerase ribozyme fitness (log ratio)” value does the source give for G47A G60U U133G here?
**A.** -0.844

**Q.** With G47A G58C G113A A121C U125C U131C as the variant, how does the “polymerase ribozyme fitness (log ratio)” value read?
**A.** -0.547

**Q.** Which “polymerase ribozyme fitness (log ratio)” value does the source give for A46U C56A C115U here?
**A.** -2.68

**Q.** For G47C C62G G120C G128A, which “polymerase ribozyme fitness (log ratio)” value is on record?
**A.** -5.53

**Q.** For A46G C56A A100C, which “polymerase ribozyme fitness (log ratio)” value is on record?
**A.** -1.41

**Q.** For G47U C64A U116G C124U, which “polymerase ribozyme fitness (log ratio)” value is on record?
**A.** -6.49

**Q.** For A46G C53A C56U, which “polymerase ribozyme fitness (log ratio)” value is on record?
**A.** -0.0153

**Q.** For A46U G107C, which “polymerase ribozyme fitness (log ratio)” value is on record?
**A.** -6.11

**Q.** Which “polymerase ribozyme fitness (log ratio)” value does the source give for A46U A66C here?
**A.** -2.07

**Q.** Which “polymerase ribozyme fitness (log ratio)” value does the source give for A46U G52C U87G G135U here?
**A.** -1.01

**Q.** For G47A A83U, which “polymerase ribozyme fitness (log ratio)” value is on record?
**A.** -0.645

**Q.** For A46G G47U A119G, which “polymerase ribozyme fitness (log ratio)” value is on record?
**A.** -0.516

**Q.** With A46G G47A G52U as the variant, how does the “polymerase ribozyme fitness (log ratio)” value read?
**A.** -2.7

**Q.** For A46U G77C C115U G122A U130C, which “polymerase ribozyme fitness (log ratio)” value is on record?
**A.** -4.76

**Q.** Which “polymerase ribozyme fitness (log ratio)” value does the source give for G45U G93U G120A here?
**A.** -0.614

**Q.** For G47U C101A C104U, which “polymerase ribozyme fitness (log ratio)” value is on record?
**A.** -2.34

**Q.** For A46U G110A, which “polymerase ribozyme fitness (log ratio)” value is on record?
**A.** -2.4

**Q.** Which “polymerase ribozyme fitness (log ratio)” value does the source give for A46U G58A A83G A84C here?
**A.** -2.18

**Q.** With G47A G113U as the variant, how does the “polymerase ribozyme fitness (log ratio)” value read?
**A.** -2.8

**Q.** Which “polymerase ribozyme fitness (log ratio)” value does the source give for G47A G113C here?
**A.** -3.08

**Q.** For G48A C73U C82G, which “polymerase ribozyme fitness (log ratio)” value is on record?
**A.** -0.747

**Q.** Which “polymerase ribozyme fitness (log ratio)” value does the source give for G47A C94A here?
**A.** -1.89

**Q.** With G45U U54G G77C C123G as the variant, how does the “polymerase ribozyme fitness (log ratio)” value read?
**A.** 0.415

**Q.** With G47A U96G G120U as the variant, how does the “polymerase ribozyme fitness (log ratio)” value read?
**A.** -1.94

**Q.** For G48A U87A G120C C124G, which “polymerase ribozyme fitness (log ratio)” value is on record?
**A.** 0.521

**Q.** For A46C G58C U59A C88G, which “polymerase ribozyme fitness (log ratio)” value is on record?
**A.** -2.01

**Q.** For G47U G71A, which “polymerase ribozyme fitness (log ratio)” value is on record?
**A.** -1.21

**Q.** For A46C G48U C70A G113A, which “polymerase ribozyme fitness (log ratio)” value is on record?
**A.** -3.12
